Literature values in patent US20030175848A1, “Substituted dithiobisnitrobenzenes and their applications” (Institut Pasteur De Lille, priority 1998, published 2003).

Molecular target: T1, human thioredoxin reductase (hTrxR) (Homo sapiens, UniProt Q16881)
T1 construct: U of native hTrxR; from tissue; host or cells: human placenta
T1 sequence (Q16881 151-649 limits assumed): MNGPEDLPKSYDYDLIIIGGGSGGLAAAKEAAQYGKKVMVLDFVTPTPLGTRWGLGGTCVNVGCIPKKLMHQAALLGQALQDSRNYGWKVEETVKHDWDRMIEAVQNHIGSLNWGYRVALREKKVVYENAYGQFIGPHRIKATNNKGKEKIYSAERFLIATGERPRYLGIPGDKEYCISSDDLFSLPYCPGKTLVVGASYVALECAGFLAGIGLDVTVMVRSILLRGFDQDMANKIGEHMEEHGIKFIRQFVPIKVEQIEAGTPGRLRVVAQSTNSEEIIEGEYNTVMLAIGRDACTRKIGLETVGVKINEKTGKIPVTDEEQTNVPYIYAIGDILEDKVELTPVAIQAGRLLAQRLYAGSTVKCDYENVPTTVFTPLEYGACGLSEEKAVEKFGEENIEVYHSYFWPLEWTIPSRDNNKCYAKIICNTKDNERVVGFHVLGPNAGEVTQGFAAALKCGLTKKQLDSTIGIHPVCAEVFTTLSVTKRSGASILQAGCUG
Conditions: substrate of native hTrxR (placenta); references [29], [38]

B1: HTrx: human thioredoxin, physiological substrate of hTrxR (protein, UniProt P10599 2-105, looked up)
Thioredoxin: VKQIESKTAFQEALDAAGDKLVVVDFSATWCGPCKMIKPFFHSLSEKYSNVIFLEVDVDDCQDVASECEVKCMPTFQFFKKGQKVGEFSGANKEKLEATINELV
  Km: 4.3 µM
